This note sets out measurements from patent US20210220404A1 (Novartis, published 2021).

The chains are these.
B1: B61-10 BCMA CAR (other)
chain: QVQLVESGGGVVQPGRSLRLSCAASGFTFSSYGMHWVRQAPGKGLEWVAVISYKGSNKYYADSVKGRFTISRDNSKNTLYLQMNSLRAEDTAVYYCGGSGYALHDDYYGLDVWGQGTLVTVSSGGGGSGGGGSGGGGSGGGGSQSALTQPASVSGSPGQSITISCTGTSSDVGGYNYVSWYQQHPGKAPKLMIYEVSNRLRGVSNRFSGSKSGNTASLTISGLQAEDEADYYCSSYTSSSTLYVFGSGTKVTVLTTTPAPRPPTPAPTIASQPLSLRPEACRPAAGGAVHTRGLDFACDIYIWAPLAGTCGVLLLSLVITLYCKRGRKKLLYIFKQPFMRPVQTTQEEDGCSCRFPEEEEGGCELRVKFSRSADAPAYQQGQNQLYNELNLGRREEYDVLDKRRGRDPEMGGKPRRKNPQEGLYNELQKDKMAEAYSEIGMKGERRRGKGHDGLYQGLSTATKDTYDALHMQALPPR
notes: CAR on transduced JNL cells or primary human T cells
B2: B61-02 BCMA CAR (other)
chain: B1 chain with T241A
notes: as for B1
B3: Hy52 BCMA CAR (other)
chain: EVQLVESGGGLVKPGGSLRLSCAASGFTFSSFRMNWVRQAPGKGLEWVSSISSSSSYIYYADSVKGRFTISRDNAKNSLYLQMNSLRAEDTAVYYCARWLSYYGMDVWGQGTTVTVSSGGGGSGGGGSGGGGSGGGGSDIVMTQTPLSLPVTPGEPASISCRSSQSLLDSDDGNTYLDWYLQKPGQSPQLLIYTLSFRASGVPDRFSGSGSGTDFTLKIRRVEAEDVGVYYCMQRIGFPITFGQGTRLEIKTTTPAPRPPTPAPTIASQPLSLRPEACRPAAGGAVHTRGLDFACDIYIWAPLAGTCGVLLLSLVITLYCKRGRKKLLYIFKQPFMRPVQTTQEEDGCSCRFPEEEEGGCELRVKFSRSADAPAYQQGQNQLYNELNLGRREEYDVLDKRRGRDPEMGGKPRRKNPQEGLYNELQKDKMAEAYSEIGMKGERRRGKGHDGLYQGLSTATKDTYDALHMQALPPR
notes: as for B1
B4: duCD19.1 anti-CD19 CAR (other)
chain: EIVMTQSPATLSLSPGERATLSCRASQDISKYLNWYQQKPGQAPRLLIYHTSRLHSGIPARFSGSGSGTDYTLTISSLQPEDFAVYFCQQGNTLPYTFGQGTKLEIKGGGGSGGGGSGGGGSQVQLQESGPGLVKPSETLSLTCTVSGVSLPDYGVSWIRQPPGKGLEWIGVIWGSETTYYQSSLKSRVTISKDNSKNQVSLKLSSVTAADTAVYYCAKHYYYGGSYAMDYWGQGTLVTVSSTTTPAPRPPTPAPTIASQPLSLRPEACRPAAGGAVHTRGLDFACDIYIWAPLAGTCGVLLLSLVITLYCKRGRKKLLYIFKQPFMRPVQTTQEEDGCSCRFPEEEEGGCELRVKFSRSADAPAYQQGQNQLYNELNLGRREEYDVLDKRRGRDPEMGGKPRRKNPQEGLYNELQKDKMAEAYSEIGMKGERRRGKGHDGLYQGLSTATKDTYDALHMQALPPR
notes: CAR on transduced primary human T cells; also called CTL119; Mono-duCD19.1
B5: human recombinant (r)BCMA_Fc-AF647 (Fc fusion)
chain: MLQMAGQCSQNEYFDSLLHACIPCQLRCSSNTPPLTCQRYCNASVTNSVKGTNA
modifications: cysteine pairing not given here; also: Alexa Fluor 647 label, Fc fusion tag, unspecified
notes: In-house flow cytometry staining reagent; not shown: Fc part of an in-house reagent
B6: PI61 BCMA CAR (other)
chain: QVQLQESGGGVVQPGRSLRLSCAASGFTFSSYGMHWVRQAPGKGLEWVAVISYDGSNKYYADSVKGRFTISRDNSKNTLYLQMNSLRAEDTAVYYCGGSGYALHDDYYGLDVWGQGTLVTVSSGGGGSGGGGSGGGGSQSALTQPASVSGSPGQSITISCTGTSSDVGGYNYVSWYQQHPGKAPKLMIYDVSNRPSGVSNRFSGSKSGNTASLTISGLQAEDEADYYCSSYTSSSTLYVFGSGTKVTVLTTTPAPRPPTPAPTIASQPLSLRPEACRPAAGGAVHTRGLDFACDIYIWAPLAGTCGVLLLSLVITLYCKRGRKKLLYIFKQPFMRPVQTTQEEDGCSCRFPEEEEGGCELRVKFSRSADAPAYQQGQNQLYNELNLGRREEYDVLDKRRGRDPEMGGKPRRKNPQEGLYNELQKDKMAEAYSEIGMKGERRRGKGHDGLYQGLSTATKDTYDALHMQALPPR
notes: CAR on transduced JNL cells or primary human T cells; also called P161; Mono PI61
B7: Hy03 BCMA CAR (other)
chain: EVQLVESGGGLVQPGGSLRLSCAASGFTFSGFWMSWVRQAPGKGLEWVANIKQDGSEKYYVDSVRGRFTISRDNAKNSLYLQMNSLRAEDTAVYYCARALDYYGMDVWGQGTTVTVSSGGGGSGGGGSGGGGSGGGGSDIVMTQTPLSLPVTPGEPASISCRSSQSLLDSDDGNTYLDWYLQKPGQSPRLLIYTLSYRASGVPDRFSGSGSGTDFTLKISRVEAEDVGLYYCTQRLEFPSITFGQGTRLEIKTTTPAPRPPTPAPTIASQPLSLRPEACRPAAGGAVHTRGLDFACDIYIWAPLAGTCGVLLLSLVITLYCKRGRKKLLYIFKQPFMRPVQTTQEEDGCSCRFPEEEEGGCELRVKFSRSADAPAYQQGQNQLYNELNLGRREEYDVLDKRRGRDPEMGGKPRRKNPQEGLYNELQKDKMAEAYSEIGMKGERRRGKGHDGLYQGLSTATKDTYDALHMQALPPR
notes: as for B1

In assay [1] the target is B5. Briefly: flow cytometry; rBCMA_Fc-AF647 staining of CAR-transduced primary human T cells, day 5 of culture (reported by the filing as CAR expression). How it is done: (§1) BCMA CAR T cells were generated by starting with blood from healthy apheresed donors whose T cells (CD4+ and CD8+ lymphocytes) were obtained by negative selection for CD3+ T cells. These cells were activated by the addition of CD3/CD28 beads (Dynabeads® Human T-Expander CD3/CD28, Thermo Fisher Scientific) at a ratio of 1:3 (T cell to bead) in T cell medium (RPMI1640, 10% heat-inactivated fetal calf serum (FCS), 2 mM L-glutamine, 1× Penicillin/Streptomycin, 100 μM non-essential amino acids, 1 mM Sodium Pyruvate, 10 mM Hepes, and 55 μM 2-mercaptoethanol). T cells were cultured at 0.5×10⁶ T cells in 1 mL medium per well of a 24-well plate at 37° C., 5% CO₂. After 24 hours, when T cells were blasting, T cells were transduced with BCMA CAR virus at a multiplicity of infection (MOI) of 5. […] Aliquots of T cells were stained to measure CAR expression by flow cytometry at day 5 and 9 on a FACS Fortessa (BD). All BCMA CAR T cells were produced under research grade (i.e., not clinical grade) manufacturing conditions.
(§2) The BCMA-CAR surface expression and its stability was assessed by measuring CAR % and MFI (mean fluorescence intensity) at day 5 and day 9 using flow cytometry analyses of rBCMA_Fc-AF647 stained cells (FIG. 2 and Table 27).
Background: A flow cytometer gives signals particle by particle.

Assay [2] has as its target B5. Briefly: flow cytometry; rBCMA_Fc-AF647 staining of CAR-transduced primary human T cells, day 9 of culture (reported by the filing as CAR expression). How it is done:
as §1, §2

For assay [3], the target named is B5. Briefly: flow cytometry, T cells with construct 244, day 8, rBCMA-Fc AF647 stain.
Protocol: BCMA-CD19 dual or monoBCMA or monoCD19 CART cells were generated using human primary T cells (CD4+ and CD8+ lymphocytes) obtained by negative selection or positive selection via Prodigy upon processing blood from healthy apheresed donors. Before transduction, the T cells were activated using CD3/CD28 beads (Dynabeads® Human T-Expander CD3/CD28, Thermo Fisher Scientific) at a ratio of 1:3 (T cell to bead) in T cell medium (RPMI1640, 10% heat-inactivated fetal calf serum (FCS), 2 mM L-glutamine, 1× Penicillin/Streptomycin, 100 μM non-essential amino acids, 1 mM Sodium Pyruvate, 10 mM Hepes, and 55 μM 2-mercaptoethanol). The cells were cultured at a density of 0.5×10⁶/mL medium per well in a 24-well plate at 37° C., 5% CO₂. After 24 hours, when T cells were blasting, they were transduced with viruses at a multiplicity of infection (MOI) of 5 based on the upstream CAR titer. T cells began to divide in a logarithmic growth pattern, which was monitored by measuring the cell counts per mL, and T cells were diluted in fresh medium every two days and de-beaded and harvested for further analyses on day 8 or beyond depending on the size of the cells. Aliquots of T cells were stained to measure CAR expression by flow cytometry on day 7 or 8 on a FACS Fortessa (BD).
Assay [4] has as its target T1, anti-BCMA CAR arm of duCD19.1-P2A-duBCMA.4 (construct 234).
T1 construct: also called c234; duCD19.1-duBCMA.4
Kind of assay: flow cytometry, T cells with construct 234, day 8, MFI of rBCMA-Fc stain.

The next assay concerns the target T2, 245.
T2 construct: also called c245; Mono-duBCMA.4
Kind of assay: flow cytometry, T cells with construct 245, day 8, MFI of rBCMA-Fc stain.

Residue numbers refer to the chain shown, from its start. No end group written: not given here.

On to B1, for which the “CAR MFI on T cells (Day 5)” value in assay [1] amounted to 27300 MFI. Moreover, the “CAR MFI on T cells (Day 9)” value in assay [2] amounted to 3290 MFI. In the same order, the values of B2 are 29100 MFI and 3470 MFI. In the same order, the values of B3 are 33700 MFI and 2860 MFI.

On to B4, for which, in assay [3], the binding result is reported as “no binding”.

Regarding B5, the binding result (in assay [4]; in the assay with 245) was “binds” each time. Regarding B6, in assay [1], the “CAR MFI on T cells (Day 5)” value is 24400 MFI. Besides, in assay [2], the “CAR MFI on T cells (Day 9)” value was 2100 MFI. Consider B7, for which the “CAR MFI on T cells (Day 5)” value in assay [1] was determined as 9460 MFI. Further, in assay [2], the “CAR MFI on T cells (Day 9)” value was 929 MFI.
